Results: paper PMC7000732, “Bridging non-overlapping reads illuminates high-order epistasis between distal protein sites in a GPCR” (Nature Communications, 2020)
“And” between values parts separate entries of the source, which are not always exact repeats. Equal values may be shown once.

Experiments:
A2aR W246Y = details: cited from earlier work
[1] = molecular target: A2aR suspended in bovine striatal membranes; design: method as in earlier work; details: literature value; cited from earlier work
[2] = design: method as in doi:10.1016/0584-8539(95)01421-P; details: cited from earlier work
[3] = FACS-based screen of A2aR library with deep sequencing (BRIDGE): variant enrichment; type: cell-based, Saccharomyces cerevisiae
[4] = Whole-cell saturation radioligand binding; design: species or system Saccharomyces cerevisiae; details: for CPM: raw replicate counts, empty vector not subtracted
[5] = Fluorescent ligand binding measured by flow cytometry; design: species or system Saccharomyces cerevisiae; details: for fluorescent ligand binding signal: Supplementary Figure 4 source data, replicates, listed as pYC A2a10H (Q89A)

For `CCNC(=O)[C@H]1O[C@@H](n2cnc3c(N)nc(NCCc4ccc(CCC(=O)O)cc4)nc32)[C@H](O)[C@@H]1O` [CGS21680], the “potency of the agonist” value (A2aR W246Y) is given as “comparable to that of the wild-type receptor”.

For `CCNC(=O)[C@H]1O[C@@H](n2cnc3c(N)nc(NCCc4ccc(CCC(=O)NCCNC(=S)Nc5ccc6c(c5)C(=O)OC65c6ccc(O)cc6Oc6cc(O)ccc65)cc4)nc32)[C@H](O)[C@@H]1O` [FITC-APEC], the Kd [1] is given as 57 nM.

In the case of `O=C1OC2(c3ccc(O)cc3Oc3cc(O)ccc32)c2ccccc21` [Fluorescein], the “pKa of the dianion” value [2] is given as 6.43.

B1: TAWLH: single-residue mutant Q89A of A2aR, positive control reported to exhibit improved binding affinity to NECA (protein, UniProt P29274 1-412, looked up, variant Q89A)
Adenosine receptor A2a: MPIMGSSVYITVELAIAVLAILGNVLVCWAVWLNSNLQNVTNYFVVSLAAADIAVGVLAIPFAITISTGFCAACHGCLFIACFVLVLTASSIFSLLAIAIDRYIAIRIPLRYNGLVTGTRAKGIIAICWVLSFAIGLTPMLGWNNCGQPKEGKNHSQGCGEGQVACLFEDVVPMNYMVYFNFFACVLVPLLLMLGVYLRIFLAARRQLKQMESQPLPGERARSTLQKEVHAAKSLAIIVGLFALCWLPLHIINCFTFFCPDCSHAPLWLMYLAIVLSHTNSVVNPFIYAYRIREFRQTFRKIIRSHVLRQQEPFKAAGTSARVLAAHGSDGEQVSLRLNGHPPGVWANGSAPHPERRPNGYALGLVSGGSAQESQGNTGLPDVELLSHELKGVCPEPPGLDDPLAQDGAGVS
modifications: decahistidine tag
With B1 the Enrichment rate ([3]; naive to PS4 library (PS4/naive), high-stringency gating, 10 µM FITC-APEC) was 149, the “Fold increase in enrichment rate over WT” value ([3]; naive to PS4 library, WT rate 0.30) was 497 fold and the Enrichment rate ([3]; naive to PS4 population) was 149 fold. For the same molecule, the Kd ([4]; 3H-NECA, whole yeast cells, pH 5.8, mean ± SD of three biological replicates, read-out: equilibrium dissociation constant (Kd)) was 9.9 ± 0.4 nM, the CPM ([4]; [3H-NECA] 1.6 nM) was 224 CPM and 211 CPM and 240 CPM and the CPM ([4]; [3H-NECA] 3.1 nM) was 450 CPM and 470 CPM and 429 CPM. For the same molecule, the CPM ([4]; [3H-NECA] 6.3 nM) was 719 CPM and 702 CPM and 640 CPM, the CPM ([4]; [3H-NECA] 12.5 nM) was 1084 CPM and 978 CPM and 892 CPM and the CPM ([4]; [3H-NECA] 25 nM) was 1238 CPM and 1266 CPM and 1270 CPM. The CPM ([4]; [3H-NECA] 50 nM) was 1460 CPM and 1383 CPM and 1357 CPM, the CPM ([4]; [3H-NECA] 100 nM) was 1834 CPM and 1782 CPM and 1547 CPM and the CPM ([4]; [3H-NECA] 200 nM) was 2245 CPM and 2197 CPM and 2158 CPM. The CPM ([4]; [3H-NECA] 400 nM) was 2884 CPM and 2262 CPM and 2852 CPM, the “fold greater 3H-NECA binding affinity than wild-type receptor” value ([4]; ratio of Kd to wild-type) was “fourfold” and the “fluorescent ligand binding, result in words” value ([5]; FITC-APEC, yeast cells) was “improved binding affinity”. For the same molecule, the “fluorescent ligand binding signal” value ([5]; [FITC-APEC] 10 nM) was 102 and 104 and 101, the “fluorescent ligand binding signal” value ([5]; [FITC-APEC] 100 nM) was 132 and 133 and 147 and the “fluorescent ligand binding signal” value ([5]; [FITC-APEC] 1000 nM) was 298 and 308 and 303. For the same molecule, the “fluorescent ligand binding signal” value ([5]; [FITC-APEC] 10000 nM) was 368 and 357 and 377 and the “fluorescent ligand binding signal” value ([5]; [FITC-APEC] 50000 nM) was 430 and 460 and 408.
